Legend:
[1] = Differential Scanning calorimetry (DSC) of lactoferrin samples; format: physicochemical
Method: Di[…] calorimetry (DSC) was used to assess the hololactoferrin and apolactoferrin forms through monitoring unfolding temperatures of lactoferrin samples using a nanoDSC (TA Instruments, Lindon, UT) according to standard DSC protocols known to those of skill in the art (e.g., see Hinz et al “M[…] OF RESULTS OBTAINED ON […] DI[…] CALORIMETRY”; herein incorporated by reference for all purposes.
API-E2 Lactoferrin (10 mg/mL), produced as described herein, was assessed by DSC. […] The lack of other peaks indicates the lack of contaminants and impurities and can assess API-E2 as ˜100%. […] Additionally, the lack of other peaks also indicated the purity of API-E2 Lactoferrin. […] The API-E2 hololactoferrin peak has a Tm of 88.38+/−0.8 C and a delta H of 632.7+/−7.2 kJ/mol. The hololactoferrin natively accounted for on average 8.74+/−1.39% of the total API-E2 lactoferrin with apolactoferrin accounting for the rest in the samples tested. However, the hololactoferrin percentage can be naturally variable. The API-E2 was calculated by this technique to contain virtually 100% pure lactoferrin.
The assay was also performed with heat-treated API-E2 Lactoferrin. API-E2 Lactoferrin was heated across a range of 50-100° C.

[2] = DSC iron binding capability with 1000× molar excess FeCl3; format: physicochemical; conditions: FeCl3 in 1000× molar excess
Method: The DSC assay was further used to assess Lactoferrin bioactivity, specifically the iron binding capability of the API-E2 Lactoferrin. Iron chloride (FeCl3) was added in 1000× molar excess to API-E2 Lactoferrin. In the presence of excess iron, the API-E2 lactoferrin will bind the iron to its open iron binding site.

[3] = system: lactoperoxidase (LPO); assay: Enzymatic assay for lactoperoxidase (LPO) activity; format: biochemical; conditions: colorimetric, turns blue in the presence of peroxidase activity
From the text: An enzymatic assay for lactoperoxidase (LPO) activity was developed utilizing a molecule which in the presence of peroxidase activity turns a blue color.

[4] = system: ECM of the buccal cells; assay: ECM binding by immunofluorescence imaging in primary buccal cells; format: cell-based; conditions: 100 μg/mL, 1 hr at 37 C
Method: Primary buccal cells were next cultured according to a standard protocol (e.g., see Russo et al. Cytotechnology. 2016 October; 68(5): 2105-2114; herein incorporated by reference for all purposes). […] Immunofluorescence imaging was performed as previously described.

[5] = system: Salivary bacteria (including Lactobacillus, Lactococcus, and Streptococcus mutans); assay: Salivary bacteria acid production by pH testing; format: cell-based; conditions: in the presence of sucrose
Method: Salivary bacteria (including Lactobacillus, Lactococcus, and Streptococcus mutans) produce acid during growth. This acidification is strongly associated with tooth decay, particularly when it results in pH below 5.5, which is a clinically relevant threshold. A slurry of these bacteria were treated with sucrose to stimulate growth, as well as varying concentrations of API-E2 lactoferrin. Upon the addition of sucrose and API-E2 lactoferrin, the pH was adjusted to 7 through a titration and the change in pH was subsequently monitored over the next 6 hours.

Row | Molecule | % of Total, apolactoferrin ([1]; native, no added iron) | available Apolactoferrin shifted to the Hololactoferrin form upon addition of excess iron [2] [%] | LPO enzymatic activity of the sample [3] | ECM association of Lactoferrin [4] | pH maintained for the entire 6 hour testing period ([5]; 1 mg/mL) | pH maintained for the entire 6 hour testing period ([5]; 10 mg/mL) | DSC peaks observed (apolactoferrin and hololactoferrin) ([1]; conditions as for API-E2) | apolactoferrin peak denaturation temperature ([1]; conditions as for API-E2) [°C] | hololactoferrin peak denaturation temperature ([1]; conditions as for API-E2) [°C]
1 | API-E2: bovine lactoferrin purified from raw, untreated milk by cation exchange chromatography and filtration according to Example 1 (protein) APRKNVRWCTISQPEWFKCRRWQWRMKKLGAPSITCVRRAFALECIRAIAEKKADAVTLDGGMVFEAGRDPYKLRPVAAEIYGTKESPQTHYYAVAVVKKGSNFQLDQLQGRKSCHTGLGRSAGWVIPMGILRPYLSWTESLEPLQGAVAKFFSASCVPCIDRQAYPNLCQLCKGEGENQCACSSREPYFGYSGAFKCLQDGAGDVAFVKETTVFENLPEKADRDQYELLCLNNSRAPVDAFKECHLAQVPSHAVVARSVDGKEDLIWKLLSKAQEKFGKNKSRSFQLFGSPPGQRDLLFKDSALGFLRIPSKVDSALYLGSRYLTTLKNLRETAEEVKARYTRVVWCAVGPEEQKKCQQWSQQSGQNVTCATASTTDDCIVLVLKGEADALNLDGGYIYTAGKCGLVPVLAENRKTSKYSSLDCVLRPTEGYLAVAVVKKANEGLTWNSLKDKKSCHTAVDRTAGWNIPMGLIVNQTGSCAFDEFFSQSCAPGRDPKSRLCALCAGDDQGLDKCVPNSKEKYYGYTGAFRCLAEDVGDVAFVKNDTVWENTNGESTADWAKNLNREDFRLLCLDGTRKPVTEAQSCHLAVAPNHAVVSRSDRAAHVKQVLLHQQALFGKNGKNCPDKFCLFKSETKNLLFNDNTECLAKLGGRPTYEEYLGTEYVTAIANLKKCSTSPLLEACAFLTR | 91.26 +/− 1.39% ^ | 100 | neither detected by M/S or by the enzymatic assay | strong binding along the ECM | above 5.5 | above 5.5 |  |  | 
2 | heat-treated API-E2 Lactoferrin: API-E2 Lactoferrin heated across a range of 50-100° C. (protein, UniProt P24627 20-708, looked up, heat-treated) Lactotransferrin: APRKNVRWCTISQPEWFKCRRWQWRMKKLGAPSITCVRRAFALECIRAIAEKKADAVTLDGGMVFEAGRDPYKLRPVAAEIYGTKESPQTHYYAVAVVKKGSNFQLDQLQGRKSCHTGLGRSAGWIIPMGILRPYLSWTESLEPLQGAVAKFFSASCVPCIDRQAYPNLCQLCKGEGENQCACSSREPYFGYSGAFKCLQDGAGDVAFVKETTVFENLPEKADRDQYELLCLNNSRAPVDAFKECHLAQVPSHAVVARSVDGKEDLIWKLLSKAQEKFGKNKSRSFQLFGSPPGQRDLLFKDSALGFLRIPSKVDSALYLGSRYLTTLKNLRETAEEVKARYTRVVWCAVGPEEQKKCQQWSQQSGQNVTCATASTTDDCIVLVLKGEADALNLDGGYIYTAGKCGLVPVLAENRKSSKHSSLDCVLRPTEGYLAVAVVKKANEGLTWNSLKDKKSCHTAVDRTAGWNIPMGLIVNQTGSCAFDEFFSQSCAPGADPKSRLCALCAGDDQGLDKCVPNSKEKYYGYTGAFRCLAEDVGDVAFVKNDTVWENTNGESTADWAKNLNREDFRLLCLDGTRKPVTEAQSCHLAVAPNHAVVSRSDRAAHVKQVLLHQQALFGKNGKNCPDKFCLFKSETKNLLFNDNTECLAKLGGRPTYEEYLGTEYVTAIANLKKCSTSPLLEACAFLTR |  |  |  |  |  |  | loss in both detectable peaks |  | 
3 | Lab-grade standard lactoferrin: commercially available Sigma lab-grade standard lactoferrin (L9507) (protein, UniProt P24627 20-708, looked up) Lactotransferrin: APRKNVRWCTISQPEWFKCRRWQWRMKKLGAPSITCVRRAFALECIRAIAEKKADAVTLDGGMVFEAGRDPYKLRPVAAEIYGTKESPQTHYYAVAVVKKGSNFQLDQLQGRKSCHTGLGRSAGWIIPMGILRPYLSWTESLEPLQGAVAKFFSASCVPCIDRQAYPNLCQLCKGEGENQCACSSREPYFGYSGAFKCLQDGAGDVAFVKETTVFENLPEKADRDQYELLCLNNSRAPVDAFKECHLAQVPSHAVVARSVDGKEDLIWKLLSKAQEKFGKNKSRSFQLFGSPPGQRDLLFKDSALGFLRIPSKVDSALYLGSRYLTTLKNLRETAEEVKARYTRVVWCAVGPEEQKKCQQWSQQSGQNVTCATASTTDDCIVLVLKGEADALNLDGGYIYTAGKCGLVPVLAENRKSSKHSSLDCVLRPTEGYLAVAVVKKANEGLTWNSLKDKKSCHTAVDRTAGWNIPMGLIVNQTGSCAFDEFFSQSCAPGADPKSRLCALCAGDDQGLDKCVPNSKEKYYGYTGAFRCLAEDVGDVAFVKNDTVWENTNGESTADWAKNLNREDFRLLCLDGTRKPVTEAQSCHLAVAPNHAVVSRSDRAAHVKQVLLHQQALFGKNGKNCPDKFCLFKSETKNLLFNDNTECLAKLGGRPTYEEYLGTEYVTAIANLKKCSTSPLLEACAFLTR |  |  | does not result in a positive enzymatic reaction | only limited ECM association |  |  | significantly smaller than those observed for API-E2 and less defined | 55 | 85
